From patent publication US20140112931A1

Tests used:
[1] = molecular target: human HER3-Fc protein (R&D system) (human) (UniProt P21860); test: ELISA, HER3-Fc coated at 250 ng/ml
[2] = molecular target: human HER3-Fc protein (R&D system) (human) (UniProt P21860); test: ELISA towards a 250 ng/ml coating solution of HER3 receptor, purified antibody
[3] = molecular target: HER3 receptor (soluble analyte of the BIACORE analysis) (human) (UniProt P21860); test: SPR, BIACORE 3000, 25 °C; antibody captured by anti-mouse polyclonal on CM5, HER3 receptor injected; bivalent analyte model

- EC50 [1]: < 1 ng/mL
- Ab titer after purification (Ab concentration showing an absorbance of 1 by ELISA) [2]: 400 pg/mL
- Kd [3]: 4.4 nM
- koff [3]: 0.00024 s⁻¹
- kon [3]: 54000 M⁻¹ s⁻¹
B1: murine anti-HER3 monoclonal antibody 9F7-F11 (antibody, from another filing, V domains shown)
VH: EVKLVESGGGLVQPGGSLKLSCAASGFTFSSYTMSWVRQTPEKRLEWVAYISDGGGVTYYPDTIKGRFTISRDNAKNTLYLQMSSLKSEDTAMYYCARDRYGLFAYWGQGTLVTVSA
VL: DIVMTQSQKFMSTSVGDRVSITCKASQNVGIAVAWYQQKPGQSPKLLIYSASNRYTGVPDRFTGSGSGTDFTLTISNMQSEDLADYFCQQYSNYPYTFGGGTKLEIK
